Target: human FcRn (soluble recombinant, 6XHis, co-expressed with beta2 microglobulin) (human)
Test: luminex binding assay, pH 6

human FcRn (soluble recombinant, 6XHis, co-expressed with beta2 microglobulin) (human), sequence (P55899 other isoform, or with tags, fused parts or gaps): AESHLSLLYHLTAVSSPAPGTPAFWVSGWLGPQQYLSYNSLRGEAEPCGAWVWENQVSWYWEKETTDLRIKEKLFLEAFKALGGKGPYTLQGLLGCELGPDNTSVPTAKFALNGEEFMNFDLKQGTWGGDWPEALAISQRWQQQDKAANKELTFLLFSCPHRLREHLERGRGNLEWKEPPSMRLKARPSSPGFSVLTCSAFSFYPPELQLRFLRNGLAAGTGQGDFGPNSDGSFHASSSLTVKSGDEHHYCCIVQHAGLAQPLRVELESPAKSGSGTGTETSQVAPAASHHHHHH

Going from “anti-CD30 antibody (5F11) Fc variant E356K” to “anti-CD30 antibody (5F11) Fc variant D376T”, the FcRn binding at pH 6 (fold difference vs wild type anti-CD30) (fold vs wild type) rises from 1.4 to 1.6.

Compared with “anti-CD30 antibody (5F11) Fc variant F404W”, “anti-CD30 antibody (5F11) Fc variant E345W” is lower in FcRn binding at pH 6 (fold difference vs wild type anti-CD30) (fold vs wild type): 1.7 for the first, 1.3 for the second.

“anti-CD30 antibody (5F11) Fc variant G446W” and “anti-CD30 antibody (5F11) Fc variant P247I” are the same in FcRn binding at pH 6 (fold difference vs wild type anti-CD30) (fold vs wild type): 1.1 for the first, 1.1 for the second.

Compared with “anti-CD30 antibody (5F11) Fc variant S354R”, “anti-CD30 antibody (5F11) Fc variant A378P” is lower in FcRn binding at pH 6 (fold difference vs wild type anti-CD30) (fold vs wild type): 1.3 for the first, 0.6 for the second.

Compared with “anti-CD30 antibody (5F11) Fc variant S254W”, “anti-CD30 antibody (5F11) Fc variant P396I” is higher in FcRn binding at pH 6 (fold difference vs wild type anti-CD30) (fold vs wild type): 0.2 for the first, 1.4 for the second.

“anti-CD30 antibody (5F11) Fc variant S426W” was tested, and the FcRn binding at pH 6 (fold difference vs wild type anti-CD30) (fold vs wild type) was 0.6.

From patent US20110123440A1
